# Assay results: US5994296A, “Human mutant tissue factor compositions useful as tissue factor antagonists” (priority 1998, dated 1999)
# Test system: recalcified plasma
# Test: one stage clotting (coagulation) assay of full-length TF mutants in CHO cell lysates
# Format: biochemical
# Conditions: for reduction in specific functional activity (loss of function) relative to wild-type TF: coagulant activity normalized to antigen concentration, full-length mutants expressed in CHO cells; for reduction in tissue factor procoagulant cofactor activity when compared to wt-TF: summary statement in the description
# Procedure: The full-length TF mutants prepared above were analyzed for function by coagulation assay. […] Coagulation factor deficient plasmas were purchased from George King Bio-medical. The chromogenic substrate, Spectrozyme FXa, was from American Diagnostica Inc. (Greenwich, Conn.).
# An alternative approach was to use a polyvalent antibody purified by affinity for capturing TF followed by detection with the TF8-5G9 monoclonal antibody described above.
# Initiation of coagulation by wild-type and mutant TF in recalcified plasma was determined after lysis of cell pellets from 2×10^6 cells/ml for each expressed full-length mutant with 15 mM octyl-glucopyranoside in HBS for 15 minutes at 37C. followed by a 3-fold dilution.
# All data represented are based on at least three independent determinations performed in duplicate.
Molecule,reduction in specific functional activity (loss of function) relative to wild-type TF,reduction in tissue factor procoagulant cofactor activity when compared to wt-TF [%]
"Ser-16: human tissue factor mutant with alanine substituted for Ser-16 (protein, UniProt P13726 33-295, looked up, variant S16A) Tissue factor: SGTTNTVAAYNLTWKATNFKTILEWEPKPVNQVYTVQISTKSGDWKSKCFYTTDTECDLTDEIVKDVKQTYLARVFSYPAGNVESTGSAGEPLYENSPEFTPYLETNLGQPTIQSFEQVGTKVNVTVEDERTLVRRNNTFLSLRDVFGKDLIYTLYYWKSSSSGKKTAKTNTNEFLIDVDKGENYCFSVQAVIPSRTVNRKSTDSPVECMGQEKGEFREIFYIIGAVVFVVIILVIILAISLHKCRKAGVGQSWKENSPLNVS",more than 70%,≥ 75
"Phe-19: human tissue factor mutant with alanine substituted for Phe-19 (protein, UniProt P13726 33-295, looked up, variant F19A) Tissue factor: SGTTNTVAAYNLTWKSTNAKTILEWEPKPVNQVYTVQISTKSGDWKSKCFYTTDTECDLTDEIVKDVKQTYLARVFSYPAGNVESTGSAGEPLYENSPEFTPYLETNLGQPTIQSFEQVGTKVNVTVEDERTLVRRNNTFLSLRDVFGKDLIYTLYYWKSSSSGKKTAKTNTNEFLIDVDKGENYCFSVQAVIPSRTVNRKSTDSPVECMGQEKGEFREIFYIIGAVVFVVIILVIILAISLHKCRKAGVGQSWKENSPLNVS",more than 70%,–
"S39-T40-S42: human tissue factor triple mutant with alanines at positions 39, 40 and 42 (protein, UniProt P13726 33-295, looked up, variant S39A T40A S42A) Tissue factor: SGTTNTVAAYNLTWKSTNFKTILEWEPKPVNQVYTVQIAAKAGDWKSKCFYTTDTECDLTDEIVKDVKQTYLARVFSYPAGNVESTGSAGEPLYENSPEFTPYLETNLGQPTIQSFEQVGTKVNVTVEDERTLVRRNNTFLSLRDVFGKDLIYTLYYWKSSSSGKKTAKTNTNEFLIDVDKGENYCFSVQAVIPSRTVNRKSTDSPVECMGQEKGEFREIFYIIGAVVFVVIILVIILAISLHKCRKAGVGQSWKENSPLNVS",43%,–
"Val-198: human tissue factor alanine mutant at Val-198 (protein, UniProt P13726 33-295, looked up, variant V198A) Tissue factor: SGTTNTVAAYNLTWKSTNFKTILEWEPKPVNQVYTVQISTKSGDWKSKCFYTTDTECDLTDEIVKDVKQTYLARVFSYPAGNVESTGSAGEPLYENSPEFTPYLETNLGQPTIQSFEQVGTKVNVTVEDERTLVRRNNTFLSLRDVFGKDLIYTLYYWKSSSSGKKTAKTNTNEFLIDVDKGENYCFSVQAVIPSRTANRKSTDSPVECMGQEKGEFREIFYIIGAVVFVVIILVIILAISLHKCRKAGVGQSWKENSPLNVS",30-80%,–
"K65-D66-K68: human tissue factor triple alanine mutant at positions 65, 66 and 68 (protein, UniProt P13726 33-295, looked up, variant K65A D66A K68A) Tissue factor: SGTTNTVAAYNLTWKSTNFKTILEWEPKPVNQVYTVQISTKSGDWKSKCFYTTDTECDLTDEIVAAVAQTYLARVFSYPAGNVESTGSAGEPLYENSPEFTPYLETNLGQPTIQSFEQVGTKVNVTVEDERTLVRRNNTFLSLRDVFGKDLIYTLYYWKSSSSGKKTAKTNTNEFLIDVDKGENYCFSVQAVIPSRTVNRKSTDSPVECMGQEKGEFREIFYIIGAVVFVVIILVIILAISLHKCRKAGVGQSWKENSPLNVS",70%,–
"Arg-200/Lys-201: human tissue factor alanine double mutant at Arg-200 and Lys-201 (protein, UniProt P13726 33-295, looked up, variant R200A K201A) Tissue factor: SGTTNTVAAYNLTWKSTNFKTILEWEPKPVNQVYTVQISTKSGDWKSKCFYTTDTECDLTDEIVKDVKQTYLARVFSYPAGNVESTGSAGEPLYENSPEFTPYLETNLGQPTIQSFEQVGTKVNVTVEDERTLVRRNNTFLSLRDVFGKDLIYTLYYWKSSSSGKKTAKTNTNEFLIDVDKGENYCFSVQAVIPSRTVNAASTDSPVECMGQEKGEFREIFYIIGAVVFVVIILVIILAISLHKCRKAGVGQSWKENSPLNVS",30-80%,–
"Phe-147: human tissue factor alanine mutant at Phe-147 (protein, UniProt P13726 33-295, looked up, variant F147A) Tissue factor: SGTTNTVAAYNLTWKSTNFKTILEWEPKPVNQVYTVQISTKSGDWKSKCFYTTDTECDLTDEIVKDVKQTYLARVFSYPAGNVESTGSAGEPLYENSPEFTPYLETNLGQPTIQSFEQVGTKVNVTVEDERTLVRRNNTFLSLRDVAGKDLIYTLYYWKSSSSGKKTAKTNTNEFLIDVDKGENYCFSVQAVIPSRTVNRKSTDSPVECMGQEKGEFREIFYIIGAVVFVVIILVIILAISLHKCRKAGVGQSWKENSPLNVS",30-50%,–
"S16-T17-K20: human tissue factor triple mutant with alanines at positions 16, 17 and 20 (protein, UniProt P13726 33-295, looked up, variant S16A T17A K20A) Tissue factor: SGTTNTVAAYNLTWKAANFATILEWEPKPVNQVYTVQISTKSGDWKSKCFYTTDTECDLTDEIVKDVKQTYLARVFSYPAGNVESTGSAGEPLYENSPEFTPYLETNLGQPTIQSFEQVGTKVNVTVEDERTLVRRNNTFLSLRDVFGKDLIYTLYYWKSSSSGKKTAKTNTNEFLIDVDKGENYCFSVQAVIPSRTVNRKSTDSPVECMGQEKGEFREIFYIIGAVVFVVIILVIILAISLHKCRKAGVGQSWKENSPLNVS",98%,–
"Thr-17: human tissue factor mutant with alanine substituted for Thr-17 (protein, UniProt P13726 33-295, looked up, variant T17A) Tissue factor: SGTTNTVAAYNLTWKSANFKTILEWEPKPVNQVYTVQISTKSGDWKSKCFYTTDTECDLTDEIVKDVKQTYLARVFSYPAGNVESTGSAGEPLYENSPEFTPYLETNLGQPTIQSFEQVGTKVNVTVEDERTLVRRNNTFLSLRDVFGKDLIYTLYYWKSSSSGKKTAKTNTNEFLIDVDKGENYCFSVQAVIPSRTVNRKSTDSPVECMGQEKGEFREIFYIIGAVVFVVIILVIILAISLHKCRKAGVGQSWKENSPLNVS",more than 70%,≥ 75
"Asp-145: human tissue factor alanine mutant at Asp-145 (protein, UniProt P13726 33-295, looked up, variant D145A) Tissue factor: SGTTNTVAAYNLTWKSTNFKTILEWEPKPVNQVYTVQISTKSGDWKSKCFYTTDTECDLTDEIVKDVKQTYLARVFSYPAGNVESTGSAGEPLYENSPEFTPYLETNLGQPTIQSFEQVGTKVNVTVEDERTLVRRNNTFLSLRAVFGKDLIYTLYYWKSSSSGKKTAKTNTNEFLIDVDKGENYCFSVQAVIPSRTVNRKSTDSPVECMGQEKGEFREIFYIIGAVVFVVIILVIILAISLHKCRKAGVGQSWKENSPLNVS",30-50%,–
"Asn-199: human tissue factor alanine mutant at Asn-199 (protein, UniProt P13726 33-295, looked up, variant N199A) Tissue factor: SGTTNTVAAYNLTWKSTNFKTILEWEPKPVNQVYTVQISTKSGDWKSKCFYTTDTECDLTDEIVKDVKQTYLARVFSYPAGNVESTGSAGEPLYENSPEFTPYLETNLGQPTIQSFEQVGTKVNVTVEDERTLVRRNNTFLSLRDVFGKDLIYTLYYWKSSSSGKKTAKTNTNEFLIDVDKGENYCFSVQAVIPSRTVARKSTDSPVECMGQEKGEFREIFYIIGAVVFVVIILVIILAISLHKCRKAGVGQSWKENSPLNVS",30-80%,≥ 75
"Val-67: human tissue factor mutant with alanine substituted for Val-67 (protein, UniProt P13726 33-295, looked up, variant V67A) Tissue factor: SGTTNTVAAYNLTWKSTNFKTILEWEPKPVNQVYTVQISTKSGDWKSKCFYTTDTECDLTDEIVKDAKQTYLARVFSYPAGNVESTGSAGEPLYENSPEFTPYLETNLGQPTIQSFEQVGTKVNVTVEDERTLVRRNNTFLSLRDVFGKDLIYTLYYWKSSSSGKKTAKTNTNEFLIDVDKGENYCFSVQAVIPSRTVNRKSTDSPVECMGQEKGEFREIFYIIGAVVFVVIILVIILAISLHKCRKAGVGQSWKENSPLNVS",53%,–
"Val-146: human tissue factor alanine mutant at Val-146 (protein, UniProt P13726 33-295, looked up, variant V146A) Tissue factor: SGTTNTVAAYNLTWKSTNFKTILEWEPKPVNQVYTVQISTKSGDWKSKCFYTTDTECDLTDEIVKDVKQTYLARVFSYPAGNVESTGSAGEPLYENSPEFTPYLETNLGQPTIQSFEQVGTKVNVTVEDERTLVRRNNTFLSLRDAFGKDLIYTLYYWKSSSSGKKTAKTNTNEFLIDVDKGENYCFSVQAVIPSRTVNRKSTDSPVECMGQEKGEFREIFYIIGAVVFVVIILVIILAISLHKCRKAGVGQSWKENSPLNVS",30-50%,–
"Tyr-71: human tissue factor mutant with alanine substituted for Tyr-71 (protein, UniProt P13726 33-295, looked up, variant Y71A) Tissue factor: SGTTNTVAAYNLTWKSTNFKTILEWEPKPVNQVYTVQISTKSGDWKSKCFYTTDTECDLTDEIVKDVKQTALARVFSYPAGNVESTGSAGEPLYENSPEFTPYLETNLGQPTIQSFEQVGTKVNVTVEDERTLVRRNNTFLSLRDVFGKDLIYTLYYWKSSSSGKKTAKTNTNEFLIDVDKGENYCFSVQAVIPSRTVNRKSTDSPVECMGQEKGEFREIFYIIGAVVFVVIILVIILAISLHKCRKAGVGQSWKENSPLNVS",98%,–
